US8802681B2, “Pharmaceutical compositions with attenuated release of phenolic opioids” (Signature Therapeutics, Inc., priority 2008, dated 2014)

Experiments:
[1] = Oral administration of Compound 3 and Compound 101 to rats, hydromorphone in plasma; format: in vivo, rat; conditions: Compound 3 20 mg/kg, Compound 101 10 mg/kg
Procedure: Saline solutions of Compound 3 (which can be prepared as described in Example 12) and Compound 101 (prepared as described in Example 14) were dosed as indicated in Table 8.

[2] = Oral administration of Compound 4 and Compound 101 to rats, hydromorphone in plasma; format: in vivo, rat; conditions: Compound 4 20 mg/kg, Compound 101 10 mg/kg
Procedure: Saline solutions of Compound 4 (which can be prepared as described in Example 13) and Compound 101 (prepared as described in Example 14) were dosed as indicated in Table 9.

[3] = Oral administration of Compound 1 and SBTI in the presence of ovalbumin to rats, hydromorphone in plasma; format: in vivo, rat; conditions: Compound 1 20 mg/kg
Procedure: In an effort to understand the role of SBTI, ovalbumin was used as a non-trypsin inhibitor protein control. Albumin from chicken egg white (ovalbumin) (Catalog No. A7641, Grade VII, lyophilized powder, Sigma-Aldrich) was dissolved in saline.
At specified time points, blood samples were drawn, harvested for plasma via centrifugation at 5,400 rpm at 4° C. for 5 min, and 100 microliters (μl) plasma transferred from each sample into a fresh tube containing 1 μl of formic acid. The tubes were vortexed for 5-10 seconds, immediately placed in dry ice and then stored until analysis by HPLC/MS.

[4] = Oral administration of Compound 1 and SBTI to rats, hydromorphone in blood; format: in vivo, rat
Procedure: At specified time points, blood samples were drawn, quenched into methanol, centrifuged at 14,000 rpm @ 4° C., and stored at −80° C. until analysis by high performance liquid chromatography/mass spectrometry (HPLC/MS).

[5] = Oral administration of Compound 3 and SBTI to rats, hydromorphone in plasma; format: in vivo, rat; conditions: Compound 3 20 mg/kg, SBTI 500 mg/kg
Text: Dosing, sampling and analysis procedures were as described in Example 4.

[6] = molecular target: T1, trypsin (Bos taurus, UniProt P00760); assay: Modified trypsin assay (in vitro IC50); format: biochemical; conditions: trypsin inhibition
T1 sequence (P00760 24-246): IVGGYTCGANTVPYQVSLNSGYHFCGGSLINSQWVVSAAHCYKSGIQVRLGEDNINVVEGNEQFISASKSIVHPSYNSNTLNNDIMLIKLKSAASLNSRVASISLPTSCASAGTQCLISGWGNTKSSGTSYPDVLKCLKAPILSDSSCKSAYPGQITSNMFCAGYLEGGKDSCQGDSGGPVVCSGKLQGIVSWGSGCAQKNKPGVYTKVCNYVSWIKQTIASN

[7] = Oral administration of Compound 2 and SBTI to rats, hydromorphone in plasma; format: in vivo, rat; conditions: Compound 2 20 mg/kg, SBTI 500 mg/kg
Procedure: When SBTI was dosed, it was administered 5 min prior to Compound 4. At specified time points, blood samples were drawn, processed and analyzed as described in Example 2.

[8] = Oral administration of Compound 4 and SBTI to rats, hydromorphone in plasma; format: in vivo, rat; conditions: Compound 4 20 mg/kg, SBTI 500 mg/kg
Procedure: Dosing, sampling and analysis procedures were as described in Example 4, except that Compound 4 without inhibitor was administered to 7 rats.

CCOC(=O)N1CCN(C(=O)[C@H](CCCNC(=N)N)NS(=O)(=O)c2ccc3ccccc3c2)CC1 [Compound 101, (S)-ethyl 4-(5-guanidino-2-(naphthalene-2-sulfonamido)pentanoyl)piperazine-1-carboxylate]
Effect of Compound 101 on Compound 3's release of hydromorphone [1]: attenuates Compound 3's ability to release hydromorphone, both with respect to suppressing Cmax and delaying Tmax | Effect of Compound 101 on Compound 4's release of hydromorphone [2]: attenuates Compound 4's ability to release hydromorphone, both with respect to suppressing Cmax and delaying Tmax

B1: ovalbumin: Albumin from chicken egg white, Catalog No. A7641, Grade VII, Sigma-Aldrich; non-trypsin inhibitor protein control (protein, UniProt P01012 2-386, looked up)
Ovalbumin: GSIGAASMEFCFDVFKELKVHHANENIFYCPIAIMSALAMVYLGAKDSTRTQINKVVRFDKLPGFGDSIEAQCGTSVNVHSSLRDILNQITKPNDVYSFSLASRLYAEERYPILPEYLQCVKELYRGGLEPINFQTAADQARELINSWVESQTNGIIRNVLQPSSVDSQTAMVLVNAIVFKGLWEKAFKDEDTQAMPFRVTEQESKPVQMMYQIGLFRVASMASEKMKILELPFASGTMSMLVLLPDEVSGLEQLESIINFEKLTEWTSSNVMEERKIKVYLPRMKMEEKYNLTSVLMAMGITDVFSSSANLSGISSAESLKISQAVHAAHAEINEAGREVVGSAEAGVDAASVSEEFRADHPFLFCIKHIATNAVLFFGRCVSP
Effect of ovalbumin on Compound 1's release of hydromorphone ([3]; OVA 20-1000 mg/kg): does not significantly affect Compound 1's ability to release hydromorphone

B2: SBTI: trypsin inhibitor from Glycine max (soybean), Catalog No. 93620, ~10,000 units per mg, Sigma-Aldrich (protein, UniProt P01070 25-205, looked up)
Trypsin inhibitor A: DFVLDNEGNPLENGGTYYILSDITAFGGIRAAPTGNERCPLTVVQSRNELDKGIGTIISSPYRIRFIAEGHPLSLKFDSFAVIMLCVGIPTEWSVVEDLPEGPAVKIGENKDAMDGWFRLERVSDDEFNNYKLVFCPQQAEDDKCGDIGISIDHDDGTRRLVVSKNKPLVVQFQKLDKESL
Effect of SBTI on Compound 1's release of hydromorphone ([4]; Compound 1 20 mg/kg, SBTI 10-1000 mg/kg): attenuates Compound 1's ability to release hydromorphone in a dose-dependent manner | Attenuation of hydromorphone release from Compound 1 ([4]; at higher SBTI concentrations): approximately 100% | Effect of SBTI on Compound 3's release of hydromorphone [5]: attenuates Compound 3's ability to release hydromorphone, both with respect to suppressing Cmax and delaying Tmax | IC50 [6]: 270 nM | Effect of SBTI on Compound 2's release of hydromorphone [7]: attenuates Compound 2's ability to release hydromorphone, both with respect to suppressing Cmax and delaying Tmax | Effect of SBTI on Compound 4's release of hydromorphone [8]: attenuates Compound 4's ability to release hydromorphone, at least with respect to delaying Tmax | Effect of SBTI on Compound 1's release of hydromorphone ([3]; SBTI 500 mg/kg in the presence of 500 mg/kg ovalbumin): suppresses Cmax and delays Tmax
